Source: patent US20030087394, “Insulin related transcription factor and uses thereof” (published 2003)

Target: RIPE3b1 47-kDa protein (mMafA), affinity purified and SDS-PAGE eluted (UniProt A0A1U7RCQ9 A0A1U7RCQ9:1-361)
Experiment: pulldown; streptavidin agarose affinity purification
Conditions: tags: from HIT T-15 nuclear extract; label: 5' biotin top strand
Experimental: This HP fraction contained about 85% of the recovered RIPE3b 1 factor with a 2.5-fold purification. The RIPE3b binding factor was then affinity purified from the HP fraction using a 5′ biotinylated RIPE3b oligonucleotide and streptavidin agarose. The purified fractions were analyzed for binding to a rat insulin II-139 to -101 bp probe by EMSA [FIG. 3, (24)]. The −139 to −101 bp probe contains the RIPE3b and overlapping A2 elements. Five distinct factors (RIPE3b1, RIPE3b2 and three A2 specific complexes) can bind the −139 to −101 bp probe. Thus the −139 to −101 bp probe serves as a good indicator of the purification process. The RIPE3b1 binding activity was eluted in two fractions and was the predominant DNA binding activity in these fractions. RIPE3b1 binding activity was purified 95-fold as compared to the HP fraction […]. The purified fraction was next analyzed on a 10% SDS-PAGE gel along with the starting HIT T-15 nuclear extract and HP fraction. […] The regions corresponding to the individual protein bands were cut; the proteins were then eluted and analyzed for the RIPE3b1 binding activity. […]

RIPE3b1 47-kDa protein (mMafA), affinity purified and SDS-PAGE eluted, sequence (A0A1U7RCQ9 entry or part of it): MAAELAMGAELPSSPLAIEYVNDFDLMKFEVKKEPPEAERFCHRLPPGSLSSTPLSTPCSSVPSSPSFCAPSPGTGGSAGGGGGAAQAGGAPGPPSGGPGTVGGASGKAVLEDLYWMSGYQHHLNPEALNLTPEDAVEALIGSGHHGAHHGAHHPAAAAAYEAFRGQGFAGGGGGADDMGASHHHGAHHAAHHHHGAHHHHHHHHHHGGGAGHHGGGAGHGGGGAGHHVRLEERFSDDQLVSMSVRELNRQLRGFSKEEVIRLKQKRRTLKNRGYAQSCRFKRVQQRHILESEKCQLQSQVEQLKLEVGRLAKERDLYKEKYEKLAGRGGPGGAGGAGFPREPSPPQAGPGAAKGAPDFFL

B1: biotinylated RIPE3b (-126 to -101) dimer (dsDNA)
DNA 1: TGACTGGAAACTGCAGCTTCAGCCCCTCTGGAAACTGCAGCTTCAGCCCCAC
DNA 2: GTGGGGCTGAAGCTGCAGTTTCCAGAGGGGCTGAAGCTGCAGTTTCCAGTCA
B1: binds.
